Experimental data reported in patent publication US20110212106A1 (INSTITUTE FOR RESEARCH IN BIOSCIENCE, published 2011).

Biological target: T1, peptide … (HIV-1)
T1 construct: also called wt peptide
Experiment: Pepscan ELISA

B1: HGN194 (antibody, V domains shown)
VH: EVQLVQSGAEVKKPGESLKISCYGSGYNFNDYWIGWVRQMPGKGLEWMGMIYPDDSDTKYSAAFEGQVTLSADKSISTAYLQWTSLRASDTATYYCARLDGDYADFDSWGQGTLVTVSS
VL: QSVLTQPPSVSAAPGQKVTISCSGTNSNLGDKFVSWYQQLPGTAPRLLIYDNDKRPSGIPDRFSGSKSGASATLAITGLQTGDEADYYCGTWDNSLSALFGGGTKLTVL
notes: also called HGN194.12
binding result: binds
